This assay has as its target human NGF (human), P01138. Nature of the assay: cell-based or functional assay.

human NGF (human), P01138, sequence (P01138 122-241 limits assumed): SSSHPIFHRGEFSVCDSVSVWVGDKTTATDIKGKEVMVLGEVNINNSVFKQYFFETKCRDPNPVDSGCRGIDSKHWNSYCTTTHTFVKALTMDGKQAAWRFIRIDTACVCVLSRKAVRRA

B1: antibody E3 (full antibody) (antibody, human IgG2, kappa)
heavy: QVQLQESGPGLVKPSETLSLTCTVSGFSLIGYDLNWIRQPPGKGLEWIGIIWGDGTTDYNSAVKSRVTISKDTSKNQFSLKLSSVTAADTAVYYCARGGYWYATSYYFDYWGQGTLVTVSSASTKGPSVFPLAPCSRSTSESTAALGCLVKDYFPEPVTVSWNSGALTSGVHTFPAVLQSSGLYSLSSVVTVPSSNFGTQTYTCNVDHKPSNTKVDKTVERKCCVECPPCPAPPVAGPSVFLFPPKPKDTLMISRTPEVTCVVVDVSHEDPEVQFNWYVDGVEVHNAKTKPREEQFNSTFRVVSVLTVVHQDWLNGKEYKCKVSNKGLPSSIEKTISKTKGQPREPQVYTLPPSREEMTKNQVSLTCLVKGFYPSDIAVEWESNGQPENNYKTTPPMLDSDGSFFLYSKLTVDKSRWQQGNVFSCSVMHEALHNHYTQKSLSLSPGK
light: not shown
modifications: not checked
B1: the antibody concentration that totally blocked NGF-elicited survival of trigeminal neurons came out at 20 nM.

The record behind these values is patent US20140017235A1.
